Experimental findings from patent US20190248860A1 (Stanford University, published 2019) are described below.

Test [1] addresses T1, biotinylated IL-2Rβ ectodomain (C-terminal biotin acceptor peptide and hexahistidine tag) (UniProt P14784 27-240, C-terminally biotinylated on the biotin acceptor peptide (coexpressed BirA ligase)).
T1 construct: range 1-214; Yeast staining reagent; in the second generation screen used as monomer, then detected with SAV-PE; also called tetrameric IL-2Rβ; monomeric IL-2Rβ
T1 sequence: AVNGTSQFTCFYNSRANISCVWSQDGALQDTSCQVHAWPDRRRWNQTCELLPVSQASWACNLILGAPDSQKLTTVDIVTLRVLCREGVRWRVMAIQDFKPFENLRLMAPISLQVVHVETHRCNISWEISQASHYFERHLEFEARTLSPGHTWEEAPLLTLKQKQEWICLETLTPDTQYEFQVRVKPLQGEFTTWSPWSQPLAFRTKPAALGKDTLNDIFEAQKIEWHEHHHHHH
Briefly: yeast display screen, labeling with 5 nM IL-2Rβ and then SAV-PE. The procedure: Upon conclusion of selections, round four and round five yeast cultures were spread on SD-CAA plates, which yielded individual yeast colonies. 48 individual yeast clones from both rounds were grown in 96-well block format and screened by labeling with 5 nM IL-2Rβ and then SAV-PE.

Test [2] addresses T2, IL-2Rβ ectodomain (amino acids 1-214), recombinant (UniProt P14784 27-240).
T2 construct: range 1-214; Used for the SPR and crystal entries; also called IL-2R13; interleukin 2 receptor beta
T2 sequence: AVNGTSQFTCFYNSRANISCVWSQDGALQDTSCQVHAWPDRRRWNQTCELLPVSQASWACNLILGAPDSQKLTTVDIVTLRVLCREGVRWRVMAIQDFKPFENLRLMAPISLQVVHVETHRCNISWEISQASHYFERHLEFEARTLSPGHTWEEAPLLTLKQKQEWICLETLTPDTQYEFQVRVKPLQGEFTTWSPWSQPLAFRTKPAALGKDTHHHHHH
The test can be described thus: method not given; SPR according to Example 10.

Test [3] concerns the target T2, IL-2Rβ ectodomain (amino acids 1-214), …. Briefly: surface plasmon resonance. On the technique in general: SPR reads the build-up and loss of mass on a sensor chip optically.
Test [4] has the same target. Briefly: SPR affinities, as told in the structural discussion.

Substitutions are numbered along the chain they refer to.

B1: yeast-displayed IL-2 mutein C5 (ligand)
chain: APTSSSTKKTQLQLEHLLLDLQMILNGINNYKNPKLTRMLTFKFYMPKKATELKHLQCLEEELKHLEEVLNLANSKNFHVTPRDVVSNINVFVLELKGSETTFMCEYADETATIVEFLNRWITFCQSIISTLT
notes: Clone of the second generation yeast display library; also called C5 (yeast clone); not shown: yeast surface display fusion partner and linker encoded by vector pCT302
As for B1, the binding result in test [1] is reported as “binds”.

B2: IL-2 mutein C5 (ligand)
chain: APTSSSTKKTQLQLEHLLLDLQMILNGINNYKNPKLTRMLTFKFYMPKKATELKHLQCLEEELKHLEEVLNLANSKNFHVTPRDVVSNINVFVLELKGSETTFMCEYADETATIVEFLNRWITFCQSIISTLTHHHHHH
Usually Kd stands for the free concentration of one partner at which half of the binding sites on the other are occupied at equilibrium, for simple one-to-one binding. As usually defined, the koff is the first-order rate constant of dissociation. B2: in test [2], the Kd is 10 nM. The koff in test [3] worked out at 0.016 s⁻¹.

B3: IL-2 mutein D10 (ligand)
chain: B2 chain with H65P, N74H, V80F, T81D
notes: also called IL-2 D10; super-2
Turning to B3, the “fold affinity gain from wild-type IL-2” value in test [4] is around 300 fold.
